Test results as given in paper PMC6222199 (Journal of Bacteriology, 2018).

B1: RR_1586 (response regulator encoded by CDR20291_1586), wild type, unphosphorylated (natural protein, Clostridioides difficile R20291, UniProt A0A9R0BKD1 1-223, looked up)
chain: MKVLIVEDNKILLESVVEELSKHFETEKCEDGEEALYLVNQNIYDLVILDLMLPNINGFDILKKMRVNNIDTPVLILTAKETLDDKVEAFTIGANDYLTKPFYMEELVARVYAILRTNGKIKERNGLEFKSLYLDTLEKRVYIEKEEIKLQNKQFNLLEYFVLNKGSILLKEQIYDRIWGIDSDATIEIVEVYVSNLRKKLSKYGYDKYIKTKRKVGYIFDDK
notes: also called apo-RR_1586; wild-type RR_1586
B2: phosphorylated RR_1586 (wild type treated with phosphoramidate) (natural protein, Clostridioides difficile R20291, UniProt A0A9R0BKD1 1-223, looked up)
chain: B1 chain
notes: also called phospho-RR_1586

Tests used:
[1] = molecular target: the molecule itself; experiment: SEC-MALS; MiniDawn Treos MALS in line with a Superdex 200 Increase SEC column; without phosphoramidate
[2] = molecular target: the molecule itself; experiment: SEC-MALS; MiniDawn Treos MALS in line with a Superdex 200 Increase SEC column; with the phosphoryl donor phosphoramidate (50 uM protein with 50 mM phosphoramidate in 20 mM Tris pH 8, 50 mM NaCl, 10 mM MgCl2, 10 min, room temperature)

Protein | stoichiometry N [1] | stoichiometry N [2]
B1 | 2 | –
B2 | – | 4
